# Test results taken from the supplement of paper PMC10065799, “High-throughput profiling of sequence recognition by tyrosine kinases and SH2 domains using bacterial peptide display” (eLife, 2023).
# Legend:
# Grb2 SH2 = Grb2 SH2 (UniProt P62993); assay: SH2 binding enrichment of the phosphorylated peptide, bacterial display (enrichment ratio); higher = better substrate or ligand; peptides without Tyr show the background
# SHP2-C SH2 = assay: as above
# c-Src SH2 = assay: as above
# Fer (mouse) = assay: phosphorylation enrichment, bacterial display (enrichment ratio); higher = better substrate or ligand; peptides without Tyr show the background
# EPHB1 = EPHB1 (UniProt P54762); assay: as above
# FGFR3 = FGFR3 (UniProt P22607); assay: as above
# Jak2 = Jak2 (UniProt O60674); assay: as above
# Fes = Fes (UniProt P07332); assay: as above
# c-Src = assay: as above
# c-Abl (mouse) = assay: as above
# Fyn = Fyn (UniProt P06241); assay: as above
# FGFR1 = FGFR1 (UniProt P11362); assay: as above
# EPHB2 = EPHB2 (UniProt P29323); assay: as above
# AncSZ = assay: as above
# MERTK = MERTK (UniProt Q12866); assay: as above
# Hck = Hck (UniProt P08631); assay: as above
# 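For SH2 binding enrichment of the phosphorylated peptide, bacterial display in this document: peptide library displayed on the E. coli surface as eCPX fusions, selected cells deep-sequenced, score is each peptide's frequency after selection divided by its frequency in the input.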
# 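For phosphorylation enrichment, bacterial display in this document: 11-residue human phosphosite peptides and single-mutation variants displayed on the E. coli surface, counted by deep sequencing, each peptide's frequency after selection divided by its frequency in the unselected input library; frequency after pTyr selection over input frequency; kinase dosed for 20-30% of maximal phosphorylation in three min.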
# Sequence of FGFR3 (P22607 whole entry, looked up): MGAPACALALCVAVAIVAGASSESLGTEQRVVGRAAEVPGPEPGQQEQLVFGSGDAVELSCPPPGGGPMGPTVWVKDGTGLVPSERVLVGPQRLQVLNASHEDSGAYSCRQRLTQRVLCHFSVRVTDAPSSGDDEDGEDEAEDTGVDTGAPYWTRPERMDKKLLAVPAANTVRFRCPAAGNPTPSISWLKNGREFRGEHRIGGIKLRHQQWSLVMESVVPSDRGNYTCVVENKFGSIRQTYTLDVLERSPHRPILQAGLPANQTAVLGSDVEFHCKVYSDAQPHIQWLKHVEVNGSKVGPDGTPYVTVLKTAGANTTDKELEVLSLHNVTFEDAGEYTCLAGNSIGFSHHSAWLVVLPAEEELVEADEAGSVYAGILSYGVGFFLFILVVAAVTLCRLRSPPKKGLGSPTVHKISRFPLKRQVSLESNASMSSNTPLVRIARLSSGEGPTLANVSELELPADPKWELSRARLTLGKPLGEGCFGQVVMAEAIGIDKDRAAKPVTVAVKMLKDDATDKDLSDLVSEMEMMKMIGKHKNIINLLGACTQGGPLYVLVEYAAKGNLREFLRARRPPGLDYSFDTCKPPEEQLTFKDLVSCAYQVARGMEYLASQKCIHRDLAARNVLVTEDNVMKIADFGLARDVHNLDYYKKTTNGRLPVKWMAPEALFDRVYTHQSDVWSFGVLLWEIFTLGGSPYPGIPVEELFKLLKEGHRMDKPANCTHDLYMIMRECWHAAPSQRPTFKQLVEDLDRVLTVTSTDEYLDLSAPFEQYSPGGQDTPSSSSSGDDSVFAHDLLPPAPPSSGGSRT
# Sequence of EPHB1 (P54762 whole entry, looked up): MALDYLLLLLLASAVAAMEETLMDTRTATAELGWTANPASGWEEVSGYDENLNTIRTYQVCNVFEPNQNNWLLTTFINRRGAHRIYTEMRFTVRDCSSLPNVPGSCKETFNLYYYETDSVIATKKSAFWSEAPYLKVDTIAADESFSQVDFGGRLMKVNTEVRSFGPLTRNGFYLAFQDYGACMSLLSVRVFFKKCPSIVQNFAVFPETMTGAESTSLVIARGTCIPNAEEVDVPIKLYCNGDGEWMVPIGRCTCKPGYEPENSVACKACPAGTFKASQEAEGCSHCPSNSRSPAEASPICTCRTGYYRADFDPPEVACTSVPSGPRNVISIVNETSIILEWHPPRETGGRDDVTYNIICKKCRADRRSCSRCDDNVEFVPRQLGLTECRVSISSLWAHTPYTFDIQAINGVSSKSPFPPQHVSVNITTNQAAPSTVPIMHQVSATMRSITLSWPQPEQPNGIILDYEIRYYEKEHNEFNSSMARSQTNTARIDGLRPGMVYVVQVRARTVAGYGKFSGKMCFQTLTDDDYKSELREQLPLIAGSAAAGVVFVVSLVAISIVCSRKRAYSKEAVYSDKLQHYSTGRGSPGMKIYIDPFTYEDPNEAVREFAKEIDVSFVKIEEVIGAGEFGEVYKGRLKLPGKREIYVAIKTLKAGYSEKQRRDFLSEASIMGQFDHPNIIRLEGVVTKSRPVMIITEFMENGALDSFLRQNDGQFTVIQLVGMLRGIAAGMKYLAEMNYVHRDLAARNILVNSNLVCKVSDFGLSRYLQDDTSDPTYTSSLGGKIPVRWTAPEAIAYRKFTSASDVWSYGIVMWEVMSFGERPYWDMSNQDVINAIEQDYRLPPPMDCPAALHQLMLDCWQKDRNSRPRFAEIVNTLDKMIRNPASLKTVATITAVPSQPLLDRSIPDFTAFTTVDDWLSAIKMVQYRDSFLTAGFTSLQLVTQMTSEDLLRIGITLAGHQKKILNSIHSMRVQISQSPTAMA
# Sequence of Fyn (P06241 whole entry, looked up): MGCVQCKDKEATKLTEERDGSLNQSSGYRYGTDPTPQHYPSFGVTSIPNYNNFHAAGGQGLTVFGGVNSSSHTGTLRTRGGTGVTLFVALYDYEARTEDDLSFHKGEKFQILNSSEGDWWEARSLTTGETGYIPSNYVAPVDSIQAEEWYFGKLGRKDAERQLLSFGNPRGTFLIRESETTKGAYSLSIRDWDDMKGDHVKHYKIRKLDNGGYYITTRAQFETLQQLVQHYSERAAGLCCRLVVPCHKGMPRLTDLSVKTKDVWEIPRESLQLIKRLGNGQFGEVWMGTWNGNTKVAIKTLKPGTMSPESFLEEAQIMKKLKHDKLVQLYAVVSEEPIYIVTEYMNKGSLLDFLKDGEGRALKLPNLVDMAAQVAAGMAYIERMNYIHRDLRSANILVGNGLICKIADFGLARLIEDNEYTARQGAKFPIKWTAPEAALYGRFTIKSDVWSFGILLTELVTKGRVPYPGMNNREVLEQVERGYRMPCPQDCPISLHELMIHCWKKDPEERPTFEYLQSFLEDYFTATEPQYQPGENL
# Sequence of MERTK (Q12866 whole entry, looked up): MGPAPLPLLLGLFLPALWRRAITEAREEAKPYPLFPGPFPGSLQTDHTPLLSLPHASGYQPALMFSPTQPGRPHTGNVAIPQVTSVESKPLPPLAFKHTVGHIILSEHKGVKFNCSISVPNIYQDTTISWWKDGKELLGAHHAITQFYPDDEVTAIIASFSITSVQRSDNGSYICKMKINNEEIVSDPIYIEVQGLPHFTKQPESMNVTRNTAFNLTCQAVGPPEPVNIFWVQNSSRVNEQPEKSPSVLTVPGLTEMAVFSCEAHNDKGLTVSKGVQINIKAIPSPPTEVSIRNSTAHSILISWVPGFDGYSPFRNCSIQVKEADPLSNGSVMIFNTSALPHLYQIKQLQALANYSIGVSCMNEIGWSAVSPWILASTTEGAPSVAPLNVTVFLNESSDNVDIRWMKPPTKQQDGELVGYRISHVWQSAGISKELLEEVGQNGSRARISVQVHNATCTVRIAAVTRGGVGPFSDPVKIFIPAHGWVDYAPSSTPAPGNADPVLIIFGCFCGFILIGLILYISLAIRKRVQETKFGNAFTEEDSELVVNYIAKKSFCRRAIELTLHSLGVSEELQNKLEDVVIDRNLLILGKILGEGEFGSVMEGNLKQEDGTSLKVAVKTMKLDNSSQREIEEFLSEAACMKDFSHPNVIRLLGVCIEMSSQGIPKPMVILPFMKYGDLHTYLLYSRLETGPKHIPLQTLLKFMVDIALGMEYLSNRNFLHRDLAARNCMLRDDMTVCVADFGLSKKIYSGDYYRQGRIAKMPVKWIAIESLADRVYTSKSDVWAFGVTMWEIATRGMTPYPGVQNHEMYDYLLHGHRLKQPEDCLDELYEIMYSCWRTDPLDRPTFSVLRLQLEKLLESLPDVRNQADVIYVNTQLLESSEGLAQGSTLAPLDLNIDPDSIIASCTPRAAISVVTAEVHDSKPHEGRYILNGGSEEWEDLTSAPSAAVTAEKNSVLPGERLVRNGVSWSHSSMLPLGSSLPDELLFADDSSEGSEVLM
# Sequence of Jak2 (O60674 whole entry, looked up): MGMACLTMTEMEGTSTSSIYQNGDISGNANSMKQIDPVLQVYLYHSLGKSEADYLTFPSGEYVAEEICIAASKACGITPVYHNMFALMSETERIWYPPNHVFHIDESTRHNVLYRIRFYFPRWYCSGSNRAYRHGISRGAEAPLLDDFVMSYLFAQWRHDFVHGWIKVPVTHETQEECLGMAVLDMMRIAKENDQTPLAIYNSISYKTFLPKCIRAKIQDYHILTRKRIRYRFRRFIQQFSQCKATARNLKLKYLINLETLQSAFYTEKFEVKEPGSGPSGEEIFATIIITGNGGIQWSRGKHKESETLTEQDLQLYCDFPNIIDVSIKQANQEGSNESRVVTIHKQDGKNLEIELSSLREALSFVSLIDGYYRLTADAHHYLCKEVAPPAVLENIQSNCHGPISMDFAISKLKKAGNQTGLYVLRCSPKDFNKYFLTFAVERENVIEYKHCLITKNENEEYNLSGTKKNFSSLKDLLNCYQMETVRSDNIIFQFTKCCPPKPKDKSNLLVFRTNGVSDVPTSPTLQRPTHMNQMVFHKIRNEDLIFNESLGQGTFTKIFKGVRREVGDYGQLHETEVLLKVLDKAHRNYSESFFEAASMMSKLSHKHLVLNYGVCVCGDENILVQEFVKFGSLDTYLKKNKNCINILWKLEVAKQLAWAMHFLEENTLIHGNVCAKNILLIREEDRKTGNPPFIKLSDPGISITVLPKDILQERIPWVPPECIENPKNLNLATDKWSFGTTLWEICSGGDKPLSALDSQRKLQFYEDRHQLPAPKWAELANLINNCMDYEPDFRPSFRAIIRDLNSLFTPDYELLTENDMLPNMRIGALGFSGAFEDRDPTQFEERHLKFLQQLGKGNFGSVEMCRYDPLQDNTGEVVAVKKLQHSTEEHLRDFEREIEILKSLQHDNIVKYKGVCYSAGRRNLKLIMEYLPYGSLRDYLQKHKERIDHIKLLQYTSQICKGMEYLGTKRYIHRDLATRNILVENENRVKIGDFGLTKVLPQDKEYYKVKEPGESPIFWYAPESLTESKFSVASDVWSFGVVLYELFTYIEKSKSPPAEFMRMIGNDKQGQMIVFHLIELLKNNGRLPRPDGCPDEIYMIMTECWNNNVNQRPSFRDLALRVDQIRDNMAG
# Sequence of Hck (P08631 whole entry, looked up, the tested form may be a part): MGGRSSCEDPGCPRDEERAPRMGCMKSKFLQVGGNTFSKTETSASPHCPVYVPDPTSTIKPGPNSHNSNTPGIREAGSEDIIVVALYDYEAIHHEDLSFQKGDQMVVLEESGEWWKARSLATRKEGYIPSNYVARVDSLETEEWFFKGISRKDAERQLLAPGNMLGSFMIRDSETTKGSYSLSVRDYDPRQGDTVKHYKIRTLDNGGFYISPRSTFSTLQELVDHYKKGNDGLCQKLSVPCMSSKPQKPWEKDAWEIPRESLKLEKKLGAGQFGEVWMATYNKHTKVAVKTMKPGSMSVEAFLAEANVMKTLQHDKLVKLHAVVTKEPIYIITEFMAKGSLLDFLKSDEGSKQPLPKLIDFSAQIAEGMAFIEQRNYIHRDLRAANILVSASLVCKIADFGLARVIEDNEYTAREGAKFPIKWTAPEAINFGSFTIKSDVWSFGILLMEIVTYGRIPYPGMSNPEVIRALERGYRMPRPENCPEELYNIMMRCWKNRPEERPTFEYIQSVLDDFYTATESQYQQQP
Sequence,SH2 binding enrichment (Grb2 SH2),SH2 binding enrichment (SHP2-C SH2),SH2 binding enrichment (c-Src SH2),phosphorylation enrichment (Fer (mouse)),phosphorylation enrichment (EPHB1),phosphorylation enrichment (FGFR3),phosphorylation enrichment (Jak2),phosphorylation enrichment (Fes),phosphorylation enrichment (c-Src),phosphorylation enrichment (c-Abl (mouse)),phosphorylation enrichment (Fyn),phosphorylation enrichment (FGFR1),phosphorylation enrichment (EPHB2),phosphorylation enrichment (AncSZ),phosphorylation enrichment (MERTK),phosphorylation enrichment (Hck)
LSSEMCVKSFT [F5_Y2149_Y2149C_YF],1,0.603,0.641,0.815,0.472,1.13,1.11,1.45,0.726,0.932,0.683,1.07,1.34,1.36,0.854,0.971
QQLDKYQELLD [LMNA_Y359_E358K],0.958,0.59,1.31,0.452,0.889,0.783,1.33,0.995,0.453,0.789,0.485,0.715,0.806,1.26,0.446,0.441
SVVVPYEPPGV [TP53_Y220_E224G],0.826,0.781,0.936,0.498,0.525,0.56,0.55,0.769,0.407,0.494,0.544,0.469,0.53,0.883,0.485,0.471
TLQSMYGCDVG [HLA-B_Y123],1.08,0.812,0.559,0.612,0.598,0.667,0.843,0.979,0.661,0.639,0.552,0.497,0.71,0.935,0.406,0.525
ANVKWYRSGRE,0.739,0.46,0.368,0.402,0.401,0.886,0.585,0.841,0.512,0.587,0.43,0.46,0.425,0.875,0.474,0.412
DLVHPYVHKIL [SF3B1_Y570_R568H],0.937,0.983,0.522,0.497,0.468,0.567,1.03,0.841,0.402,0.655,0.495,0.457,0.51,0.717,0.435,0.432
LKLIQYHLIQQ [AKAP4_Y554_T557I],1.51,4.15,2.22,0.544,0.95,0.924,1.4,1.67,0.582,1.16,0.553,0.687,0.737,1.2,0.774,0.659
LEIETYRRLRD [KRT12_Y429_L433R],0.754,0.725,0.471,0.351,0.533,0.809,1.23,1.25,0.672,0.659,0.658,0.645,0.559,0.859,0.834,0.674
